Test results: article PMC6876245
Read-outs that look alike come from different tables or passages of the source.

T1: POT1-N (human, UniProt Q9NUX5 1-340)
T1 sequence: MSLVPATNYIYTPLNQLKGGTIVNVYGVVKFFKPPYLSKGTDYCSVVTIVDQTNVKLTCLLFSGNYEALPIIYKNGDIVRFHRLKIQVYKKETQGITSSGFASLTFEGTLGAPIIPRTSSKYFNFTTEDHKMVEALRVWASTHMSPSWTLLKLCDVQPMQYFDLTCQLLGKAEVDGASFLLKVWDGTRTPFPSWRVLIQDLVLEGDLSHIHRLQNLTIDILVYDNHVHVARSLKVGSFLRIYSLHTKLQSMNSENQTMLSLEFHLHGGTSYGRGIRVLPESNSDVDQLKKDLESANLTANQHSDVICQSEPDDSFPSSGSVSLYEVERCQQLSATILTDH

B1: hT72 (ssDNA)
DNA: GGTTAGGGTTAGGGTTAGGGTTAGGGTTAGGGTTAGGGTTAGGGTTAGGGTTAGGGTTAGGGTTAGGGTTAG

What was measured:
POT1 Y36N;TPP1 [1] = target: T2, POT1 Y36N;TPP1 (human;human, UniProt Q9NUX5;Q96AP0 1-634;3-248, Y36N|); assay: EMSA
Target sequence in this assay (Q96AP0 3-248, stated change not applied, one chain of several): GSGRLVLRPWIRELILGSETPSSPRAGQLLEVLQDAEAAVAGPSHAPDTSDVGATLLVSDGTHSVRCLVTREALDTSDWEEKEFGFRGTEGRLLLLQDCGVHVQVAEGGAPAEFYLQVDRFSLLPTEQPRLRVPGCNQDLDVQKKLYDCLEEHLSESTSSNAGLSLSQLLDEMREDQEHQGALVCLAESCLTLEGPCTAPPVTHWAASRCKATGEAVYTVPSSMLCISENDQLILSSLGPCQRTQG

POT1;TPP1 [2] = target: T3, POT1;TPP1 (human;human, UniProt Q9NUX5;Q96AP0 1-634;3-248, |); assay: EMSA
POT1 H266L;TPP1 [3] = target: T4, POT1 H266L;TPP1 (human;human, UniProt Q9NUX5;Q96AP0 1-634;3-248, H266L|); assay: stopped-flow CD
Target sequence in this assay (Q96AP0 3-248, stated change not applied, one chain of several): as above

POT1-N [4] = target: T1, POT1-N; assay: hydroxyl radical footprinting MS
POT1 H266L;TPP1 [5] = target: T4, POT1 H266L;TPP1; assay: EMSA
Target sequence in this assay (Q9NUX5 whole entry H266L, chain 1 of 2): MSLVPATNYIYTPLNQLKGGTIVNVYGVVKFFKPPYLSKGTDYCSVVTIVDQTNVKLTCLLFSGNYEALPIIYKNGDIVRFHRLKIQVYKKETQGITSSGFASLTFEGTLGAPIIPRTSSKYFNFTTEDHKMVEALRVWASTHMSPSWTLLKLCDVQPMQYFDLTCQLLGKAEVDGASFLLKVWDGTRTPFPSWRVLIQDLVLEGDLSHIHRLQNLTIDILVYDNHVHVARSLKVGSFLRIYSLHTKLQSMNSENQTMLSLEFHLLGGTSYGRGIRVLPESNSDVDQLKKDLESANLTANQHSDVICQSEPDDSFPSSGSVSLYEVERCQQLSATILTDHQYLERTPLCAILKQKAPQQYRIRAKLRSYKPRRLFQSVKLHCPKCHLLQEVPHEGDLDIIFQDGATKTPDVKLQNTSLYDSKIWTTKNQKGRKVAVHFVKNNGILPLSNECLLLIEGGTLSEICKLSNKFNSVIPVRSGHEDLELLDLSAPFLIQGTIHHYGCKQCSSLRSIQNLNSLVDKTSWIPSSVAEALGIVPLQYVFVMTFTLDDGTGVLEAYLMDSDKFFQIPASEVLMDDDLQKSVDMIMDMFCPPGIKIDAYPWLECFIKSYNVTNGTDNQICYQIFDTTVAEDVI
Target sequence in this assay (Q96AP0 3-248, chain 2 of 2): as the sequence (Q96AP0 3-248, stated change not applied, one chain of several) above

POT1;TPP1 [6] = target: T3, POT1;TPP1; assay: EMSA; remark: listed apart in the source
POT1 Y36N;TPP1 [7] = target: T2, POT1 Y36N;TPP1; assay: EMSA; remark: listed apart in the source
Target sequence in this assay (Q9NUX5 whole entry Y36N, chain 1 of 2): as the sequence (Q9NUX5 whole entry H266L, chain 1 of 2) above, with Y36N, L266H counted along it
Target sequence in this assay (Q96AP0 3-248, chain 2 of 2): as the sequence (Q96AP0 3-248, stated change not applied, one chain of several) above

POT1-N [8] = target: T1, POT1-N; assay: hydroxyl radical footprinting MS; remark: listed apart in the source

T3 sequence (Q96AP0 3-248, one chain of several): as the sequence (Q96AP0 3-248, stated change not applied, one chain of several) above

Binder | apparent K (half saturation) (POT1 Y36N;TPP1 [1]) | apparent K (half saturation) (POT1;TPP1 [2]) | binding result (POT1 H266L;TPP1 [3]) | binding result (POT1-N [4]) | Kd (POT1 H266L;TPP1 [5]) | Kd (POT1;TPP1 [6]) | Kd (POT1 Y36N;TPP1 [7]) | binding result (POT1-N [8])
B1 | 4.5 ± 0.4 nM | 6.9 ± 0.6 nM | binds | binds |  |  |  | 
GGTTAGGGTTAG (ssDNA) [hT12] |  |  |  |  | 29.1 ± 9.3 nM | 1 ± 0.5 nM | 2.2 ± 1.1 nM | binds
